Experiment [1] concerns the target T1, mouse FcγRIII extracellular domain, C-terminal His tag (mouse, UniProt P08508 31-215).
T1 construct: also called mFcγRIII; mFcgRIII
T1 chain: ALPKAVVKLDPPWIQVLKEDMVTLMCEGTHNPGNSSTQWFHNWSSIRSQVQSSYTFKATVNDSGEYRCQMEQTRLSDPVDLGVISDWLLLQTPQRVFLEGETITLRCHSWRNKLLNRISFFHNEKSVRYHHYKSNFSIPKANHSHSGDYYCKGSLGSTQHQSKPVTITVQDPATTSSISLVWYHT
Put plainly: SPR (Biacore T200), antibody captured on Protein L, mFcγR analyte. In general terms: SPR reads the build-up and loss of mass on a sensor chip optically.

In experiment [2] the target is T2, mouse FcγRII extracellular domain, C-terminal His tag (mouse, UniProt P08101 30-210).
T2 construct: also called mFcγRII; mFcgRII
T2 sequence: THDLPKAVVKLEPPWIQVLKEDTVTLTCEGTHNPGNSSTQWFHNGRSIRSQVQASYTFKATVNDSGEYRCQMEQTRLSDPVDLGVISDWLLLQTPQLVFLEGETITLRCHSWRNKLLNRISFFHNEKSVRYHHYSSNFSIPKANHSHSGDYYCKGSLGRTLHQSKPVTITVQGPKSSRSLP
The experiment is described as above.

What is called Kd is the concentration at which binding is half-saturated.

B1: H237-MB835/MRAL-k0 (antibody, mouse IgG1, kappa)
heavy: QVQLQESGPGLVKPSETLSLTCAVSGHSISHDHAWSWVRQPPGEGLEWIGFISYSGITNYNPSLQGRVTISRDNSKNTLYLQMNSLRAEDTAVYYCARSLARTTAMDYWGEGTLVTVSSAKTTPPSVYPLAPGSAAQTNSMVTLGCLVKGYFPEPVTVTWNSGSLSSGVHTFPAVLQSDLYTLSSSVTVPSSTWPSETVTCNVAHPASSTKVDKKIVPRDCGCKPCICEPNEVELVFIFPPKPKDVLTITLTPKVTCVVVDISDDDPEVQFSWFVDDVEVHTAQTQPREEQFNSTFRSVSELPIMHQDWLNGKEFKCRVNSAAFPAPIEKTISKTKGRPKAPQVYTIPPPKEQMAKDKVSLTCMITDFFPEDITVEWQWNGQPAENYKNTQPIMDTDGSYFVYSKLNVQKSNWEAGNTFTCSVLHEGLHNHHTEKSLSHSPGK
light: not shown
notes: copies: 2 + 2
For the molecule B1, in experiment [1], the dissociation constant Kd was found to be 401 nM and the “relative mFcγRIII-binding activity (mIgG1 = 1)” value is 0.7 fold vs H237-mIgG1/MRAL-k0. For the same molecule, in experiment [2], the affinity, expressed as Kd, was 8 nM and the “relative mFcγRII-binding activity (mIgG1 = 1)” value is 26.3 fold vs H237-mIgG1/MRAL-k0.

B2: H237-MB847/MRAL-k0 (antibody, mouse IgG1, kappa)
heavy: QVQLQESGPGLVKPSETLSLTCAVSGHSISHDHAWSWVRQPPGEGLEWIGFISYSGITNYNPSLQGRVTISRDNSKNTLYLQMNSLRAEDTAVYYCARSLARTTAMDYWGEGTLVTVSSAKTTPPSVYPLAPGSAAQTNSMVTLGCLVKGYFPEPVTVTWNSGSLSSGVHTFPAVLQSDLYTLSSSVTVPSSTWPSETVTCNVAHPASSTKVDKKIVPRDCGCKPCICEPNEVELVFIFPPKPKDVLTITLTPKVTCVVVDISKDDPEVQFSWFVDDVEVHTAQTQPREELFNSTFRSVSELPIMHQDWLNGKEFKCRVNSDGFPAPIEKTISKTKGRPKAPQVYTIPPPKEQMAKDKVSLTCMITDFFPEDITVEWQWNGQPAENYKNTQPIMDTDGSYFVYSKLNVQKSNWEAGNTFTCSVLHEGLHNHHTEKSLSHSPGK
light: not shown
notes: copies: 2 + 2
Turning to B2, in experiment [1], the dissociation constant (Kd) is 213 nM and the “relative mFcγRIII-binding activity (mIgG1 = 1)” value was 1.3 fold vs H237-mIgG1/MRAL-k0. In addition, in experiment [2], the Kd was 4.81 nM and the “relative mFcγRII-binding activity (mIgG1 = 1)” value is 43.7 fold vs H237-mIgG1/MRAL-k0.

B3: H237-MB850/MRAL-k0 (antibody, mouse IgG1, kappa)
heavy: QVQLQESGPGLVKPSETLSLTCAVSGHSISHDHAWSWVRQPPGEGLEWIGFISYSGITNYNPSLQGRVTISRDNSKNTLYLQMNSLRAEDTAVYYCARSLARTTAMDYWGEGTLVTVSSAKTTPPSVYPLAPGSAAQTNSMVTLGCLVKGYFPEPVTVTWNSGSLSSGVHTFPAVLQSDLYTLSSSVTVPSSTWPSETVTCNVAHPASSTKVDKKIVPRDCGCKPCICEPNEVELVFIFPPKPKDVLTITLTPKVTCVVVDISKDDPEVQFSWFVDDVEVHTAQTQPREEQFNSTFRSVSELPIMHQDWLNGKEFKCRVNSDGFPAPIYKTISKTKGRPKAPQVYTIPPPKEQMAKDKVSLTCMITDFFPEDITVEWQWNGQPAENYKNTQPIMDTDGSYFVYSKLNVQKSNWEAGNTFTCSVLHEGLHNHHTEKSLSHSPGK
light: not shown
notes: copies: 2 + 2
Take B3: in experiment [1], the Kd was found to be 358 nM and the “relative mFcγRIII-binding activity (mIgG1 = 1)” value is 0.8 fold vs H237-mIgG1/MRAL-k0. In experiment [2], the dissociation constant (Kd) turned out to be 4.81 nM and the “relative mFcγRII-binding activity (mIgG1 = 1)” value is 43.7 fold vs H237-mIgG1/MRAL-k0.

B4: H237-MB851/MRAL-k0 (antibody, mouse IgG1, kappa)
heavy: QVQLQESGPGLVKPSETLSLTCAVSGHSISHDHAWSWVRQPPGEGLEWIGFISYSGITNYNPSLQGRVTISRDNSKNTLYLQMNSLRAEDTAVYYCARSLARTTAMDYWGEGTLVTVSSAKTTPPSVYPLAPGSAAQTNSMVTLGCLVKGYFPEPVTVTWNSGSLSSGVHTFPAVLQSDLYTLSSSVTVPSSTWPSETVTCNVAHPASSTKVDKKIVPRDCGCKPCICEPNEVELVFIFPPKPKDVLTITLTPKVTCVVVDISKDDPEVQFSWFVDDVEVHTAQTQPREEQFNSTFRSVSELPIMHQDWLNGKEFKCRVNSDGFPAPIERTISKTKGRPKAPQVYTIPPPKEQMAKDKVSLTCMITDFFPEDITVEWQWNGQPAENYKNTQPIMDTDGSYFVYSKLNVQKSNWEAGNTFTCSVLHEGLHNHHTEKSLSHSPGK
light: not shown
notes: copies: 2 + 2
Regarding B4, in experiment [1], the Kd was determined as 295 nM and the “relative mFcγRIII-binding activity (mIgG1 = 1)” value is 1 fold vs H237-mIgG1/MRAL-k0. For the same molecule, in experiment [2], the Kd came to 4.79 nM and the “relative mFcγRII-binding activity (mIgG1 = 1)” value is 43.8 fold vs H237-mIgG1/MRAL-k0.

B5: H237-MB849/MRAL-k0 (antibody, mouse IgG1, kappa)
heavy: QVQLQESGPGLVKPSETLSLTCAVSGHSISHDHAWSWVRQPPGEGLEWIGFISYSGITNYNPSLQGRVTISRDNSKNTLYLQMNSLRAEDTAVYYCARSLARTTAMDYWGEGTLVTVSSAKTTPPSVYPLAPGSAAQTNSMVTLGCLVKGYFPEPVTVTWNSGSLSSGVHTFPAVLQSDLYTLSSSVTVPSSTWPSETVTCNVAHPASSTKVDKKIVPRDCGCKPCICEPNEVELVFIFPPKPKDVLTITLTPKVTCVVVDISKDDPEVQFSWFVDDVEVHTAQTQPREEQFNSTFRSVSELPIMHQDWLNGKEFKCRVNSDGFPAYIEKTISKTKGRPKAPQVYTIPPPKEQMAKDKVSLTCMITDFFPEDITVEWQWNGQPAENYKNTQPIMDTDGSYFVYSKLNVQKSNWEAGNTFTCSVLHEGLHNHHTEKSLSHSPGK
light: not shown
notes: copies: 2 + 2
Consider B5, for which, in experiment [1], binding was put at a Kd of 436 nM and the “relative mFcγRIII-binding activity (mIgG1 = 1)” value was 0.6 fold vs H237-mIgG1/MRAL-k0. In experiment [2], the dissociation constant (Kd) was determined as 6.68 nM and the “relative mFcγRII-binding activity (mIgG1 = 1)” value was 31.4 fold vs H237-mIgG1/MRAL-k0.

B6: H237-MB846/MRAL-k0 (antibody, mouse IgG1, kappa)
heavy: QVQLQESGPGLVKPSETLSLTCAVSGHSISHDHAWSWVRQPPGEGLEWIGFISYSGITNYNPSLQGRVTISRDNSKNTLYLQMNSLRAEDTAVYYCARSLARTTAMDYWGEGTLVTVSSAKTTPPSVYPLAPGSAAQTNSMVTLGCLVKGYFPEPVTVTWNSGSLSSGVHTFPAVLQSDLYTLSSSVTVPSSTWPSETVTCNVAHPASSTKVDKKIVPRDCGCKPCICEPNEVELVFIFPPKPKDVLTITLTPKVTCVVVDISDDDPEVQFSWFVDDVEVHTAQTQPREEQFNSTFRSVSELPIMHQDWLNGKEFKCRVNSDGFPAPIEKTISKTKGRPKAPQVYTIPPPKEQMAKDKVSLTCMITDFFPEDITVEWQWNGQPAENYKNTQPIMDTDGSYFVYSKLNVQKSNWEAGNTFTCSVLHEGLHNHHTEKSLSHSPGK
light: not shown
notes: copies: 2 + 2
As to B6, in experiment [1], the Kd came out at 133 nM and the “relative mFcγRIII-binding activity (mIgG1 = 1)” value was 2.1 fold vs H237-mIgG1/MRAL-k0. For the same molecule, in experiment [2], binding was characterised by a dissociation constant (Kd) of 2.91 nM and the “relative mFcγRII-binding activity (mIgG1 = 1)” value is 72.1 fold vs H237-mIgG1/MRAL-k0.

B7: H237-MB848/MRAL-k0 (antibody, mouse IgG1, kappa)
heavy: QVQLQESGPGLVKPSETLSLTCAVSGHSISHDHAWSWVRQPPGEGLEWIGFISYSGITNYNPSLQGRVTISRDNSKNTLYLQMNSLRAEDTAVYYCARSLARTTAMDYWGEGTLVTVSSAKTTPPSVYPLAPGSAAQTNSMVTLGCLVKGYFPEPVTVTWNSGSLSSGVHTFPAVLQSDLYTLSSSVTVPSSTWPSETVTCNVAHPASSTKVDKKIVPRDCGCKPCICEPNEVELVFIFPPKPKDVLTITLTPKVTCVVVDISKDDPEVQFSWFVDDVEVHTAQTQPREEQFNSTFRSVSELPIMHQDWLNGKEFKCRVDSDGFPAPIEKTISKTKGRPKAPQVYTIPPPKEQMAKDKVSLTCMITDFFPEDITVEWQWNGQPAENYKNTQPIMDTDGSYFVYSKLNVQKSNWEAGNTFTCSVLHEGLHNHHTEKSLSHSPGK
light: not shown
notes: copies: 2 + 2
With B7, in experiment [1], the Kd came to 308 nM and the “relative mFcγRIII-binding activity (mIgG1 = 1)” value was 0.9 fold vs H237-mIgG1/MRAL-k0. Also, in experiment [2], binding was characterised by a dissociation constant (Kd) of 4.58 nM and the “relative mFcγRII-binding activity (mIgG1 = 1)” value is 45.8 fold vs H237-mIgG1/MRAL-k0.

Values taken from patent publication US20150203577A1 (Chugai, published 2015).
